The values below come from patent US20220380459A1 (DRAGONFLY THERAPEUTICS, published 2022).

By Kd is commonly meant the equilibrium constant for the complex coming apart. A word on the koff: it is a measure of how fast the partners let go of each other. A lower koff goes with a long-lived complex. As a reminder, the kon is the second-order rate constant of association.

The target in assay [1] is T1, human CD33 expressed on cells (human, UniProt P20138 18-364).
T1 construct: endogenous CD33 of human AML cell lines and blood monocytes; also called cell-expressed CD33 (Molm-13, Mv4-11, monocytes)
Description: flow cytometry on Molm-13 cells, fluorophore-conjugated anti-human IgG secondary antibody, MFI as fold over background (FOB). A general note: Flow cytometry measures light scatter and fluorescence of single cells or particles in a stream.
Description: Binding of the TriNKET was detected using a fluorophore conjugated anti-human IgG secondary antibody. Cells were analyzed by flow cytometry, binding MFI to cell expressed CD33 was normalized to secondary antibody controls to obtain fold over background values.

In assay [2] the target is T2, human CD33 extracellular domain (human, UniProt P20138 18-259).
T2 construct: soluble monomeric ECD; also called human CD33 ECD; hCD33
The assay is described as follows: SPR, Fab captured, 37C. A general note: Surface plasmon resonance follows binding to a sensor surface in real time, without labels.
Description: (§1) Kinetics and affinity of a series of Fab fragments of anti-CD33 antibodies with different CD33 variants (human CD33 ECD, cyno CD33 ECD, V-domain of human CD33, C-domain or human CD33 and selected CD33 SNPs) were assessed by surface plasmon resonance using Biacore 8K instrument (GE Healthcare). Anti-Fab antibody was immobilized on a CMS chip using standard amine coupling chemistry. CD33 FABs were captured on the anti-Fab chip at a density of ˜100 RU. Solutions containing different concentrations of soluble monomeric CD33 or its domains were injected over the captured FABs and control surfaces at 30 μl/min at 37° C. Surfaces were regenerated between cycles by quick injection of 10 mM glycine, pH 1.8. To obtain kinetic rate constants double-referenced data were fit to a 1:1 interaction model using Biacore 8K Evaluation software (GE Healthcare). The equilibrium binding constant KD was determined by the ratio of binding rate constants kd/kₐ.
(§2) Affinity of 29 Fab fragments binding to human and cyno CD33 ECD were assayed by Biacore analysis.

The target in assay [3] is T3, V domain of human CD33 (human, UniProt P20138 18-139, limits assumed).
T3 construct: recombinant, fully glycosylated V domain; also called Human CD33 V domain
Description: SPR, Fab captured, 37C.
Description: as §1

Assay [4] concerns the target T2, human CD33 extracellular domain. The assay is described as follows: SPR, Fab captured, 37C. This is another data set of the same source.
Description: as §1
Assay [5] has the same target. Description: SPR, Fab captured, 37C. This is another data set of the same source.
Description: as §1, §2
The target in another assay is T4, C domain of human CD33 (human, UniProt P20138 140-259, limits assumed).
T4 construct: recombinant C domain
The assay is described as follows: SPR, Fab captured, 37C.

In assay [6] the target is T5, deglycosylated V domain of human CD33 (human, UniProt P20138 18-139, limits assumed, N-glycans removed by PNGase).
T5 construct: V domain deglycosylated by PNGase before testing; also called deglycosylated V CD33
The assay is described as follows: SPR, Fab captured, 37C.

The target of assay [7] is T3, V domain of human CD33. The assay is described as follows: SPR, Fab captured, 37C. This is another data set of the same source.
Assay [8] addresses T6, cyno CD33 extracellular domain (Cynomolgus/Rhesus (cyno)).
T6 construct: soluble monomeric ECD; also called cyno CD33 ECD
Description: SPR, Fab captured, 37C.
Description: as §1, §2

Assay [9] addresses T2, human CD33 extracellular domain. The assay is described as follows: SPR, Fab captured, 37C. The source holds these as a separate data set.
Description: as §1, §2

Read-outs that look alike come from different tables or passages of the source.

B1: A44.I35 (bispecific antibody)
NKG2D-binding VH: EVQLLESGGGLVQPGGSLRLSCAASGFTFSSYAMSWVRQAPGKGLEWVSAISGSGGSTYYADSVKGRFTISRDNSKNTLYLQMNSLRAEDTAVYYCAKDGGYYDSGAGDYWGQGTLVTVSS
NKG2D-binding VL: DIQMTQSPSSVSASVGDRVTITCRASQGIDSWLAWYQQKPGKAPKLLIYAASSLQSGVPSRFSGSGSGTDFTLTISSLQPEDFATYYCQQGVSYPRTFGGGTKVEIK
CD33-binding VH: QLQLQESGPGLVKPSETLSLTCTVSGGSISSTDYYWGWIRQPPGKGLEWIGSIGYSGTYYNPSLKSRVTISVDTSKNQFSLKLSSVTAADTAVYYCARETAHDVHGMDVWGQGTTVTVSS
CD33-binding VL: EIVLTQSPATLSLSPGERATLSCRASHSVYSYLAWYQQKPGQAPRLLIYDASNRATGIPARFSGSGSGTDFTLTISSLEPEDFAVYYCQQYDNLPTFGGGTKVEIK
Regarding B1, the binding result in assay [1] is reported as “binds”.

B2: ADI-11839 Fab (Fab, V domains shown)
VH: QVQLVQSGAEVKKPGASVKVSCKASGYTFSNYYMHWVRQAPGQGLEWMGWINPFSGGTRYAQKFQGRVTMTRDTSTSTVYMELSSLRSEDTAVYYCARDVGSSAYYYMDVWGKGTTVTVSS
VL: DIQMTQSPSSVSASVGDRVTITCEASKGISSWLAWYQQKPGKAPKLLIYAASDLQSGVPSRFSGSGSGTDFTLTISSLQPEDFATYYCQQAFLFPPTFGGGTKVEIK
notes: Fab fragment; also called Ab28
Regarding B2, the Kd in assay [2] worked out at 18.6 nM; with V domain of human CD33 [3], 44.6 nM; in [4] it was 18.6 nM; in [5], 18.6 nM; in [6], 70.3 nM; with V domain of human CD33 [7], 44.6 nM. The same molecule gave a dissociation constant (Kd) in assay [9] of 18.6 nM. Further, the koff in [2] was found to be 0.0162 s⁻¹; in the assay with V domain of human CD33 [3], 0.41 s⁻¹; in assay [4], 0.0162 s⁻¹; in assay [5], 0.0162 s⁻¹; in assay [6] it was 0.116 s⁻¹; with V domain of human CD33 [7] it was 0.41 s⁻¹. The molecule also came in with a dissociation rate constant (koff) in assay [9] of 0.0162 s⁻¹. Moreover, the on-rate (kon) was 9.19e+06 M⁻¹ s⁻¹ with V domain of human CD33 [3]; 874000 M⁻¹ s⁻¹ in assay [4]; 874000 M⁻¹ s⁻¹ in [5]; 1.65e+06 M⁻¹ s⁻¹ in assay [6]; 9.19e+06 M⁻¹ s⁻¹ with V domain of human CD33 [7]; 874000 M⁻¹ s⁻¹ in assay [9]. Moreover, the binding result in the assay with C domain of human CD33 was “no binding”; in [8] it was “no binding (tested: 100 nM)”.

B3: A40.I07 (bispecific antibody)
NKG2D-binding VH: QVQLQQWGAGLLKPSETLSLTCAVYGGSFSGYYWSWIRQPPGKGLEWIGEIDHSGSTNYNPSLKSRVTISVDTSKNQFSLKLSSVTAADTAVYYCARARGPWSFDPWGQGTLVTVSS
NKG2D-binding VL: DIQMTQSPSTLSASVGDRVTITCRASQSIGSWLAWYQQKPGKAPKLLIYKASSLESGVPSRFSGSGSGTEFTLTISSLQPDDFATYYCQQYHSFYTFGGGTKVEIK
CD33-binding VH: EVQLVESGGGLVQPGGSLRLSCAASGFTFGSYWMSWVRQAPGKGLEWVATIKQDGSEKSYVDSVKGRFTISRDNAKNSLYLQMNSLRAEDTAVYYCARPLNAGELDVWGQGTMVTVSS
CD33-binding VL: DIQMTQSPSTLSASVGDRVTITCRASQSISSWLAWYQQKPGKAPKLLIYEASSLESGVPSRFSGSGSGTEFTLTISSLQPDDFATYYCQQSQSYPPITFGGGTKVEIK
On to B3, for which the binding result in assay [1] was “binds”.

B4: A40.I35 (bispecific antibody)
NKG2D-binding VH: QVQLQQWGAGLLKPSETLSLTCAVYGGSFSGYYWSWIRQPPGKGLEWIGEIDHSGSTNYNPSLKSRVTISVDTSKNQFSLKLSSVTAADTAVYYCARARGPWSFDPWGQGTLVTVSS
NKG2D-binding VL: DIQMTQSPSTLSASVGDRVTITCRASQSIGSWLAWYQQKPGKAPKLLIYKASSLESGVPSRFSGSGSGTEFTLTISSLQPDDFATYYCQQYHSFYTFGGGTKVEIK
CD33-binding VH: QLQLQESGPGLVKPSETLSLTCTVSGGSISSTDYYWGWIRQPPGKGLEWIGSIGYSGTYYNPSLKSRVTISVDTSKNQFSLKLSSVTAADTAVYYCARETAHDVHGMDVWGQGTTVTVSS
CD33-binding VL: EIVLTQSPATLSLSPGERATLSCRASHSVYSYLAWYQQKPGQAPRLLIYDASNRATGIPARFSGSGSGTDFTLTISSLEPEDFAVYYCQQYDNLPTFGGGTKVEIK
B4: the binding result in assay [1] is listed as “binds”.

B5: A44.H76 (bispecific antibody)
NKG2D-binding VH: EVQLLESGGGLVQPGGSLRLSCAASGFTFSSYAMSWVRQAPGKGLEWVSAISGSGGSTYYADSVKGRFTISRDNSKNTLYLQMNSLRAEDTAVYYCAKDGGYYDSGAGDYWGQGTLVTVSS
NKG2D-binding VL: DIQMTQSPSSVSASVGDRVTITCRASQGIDSWLAWYQQKPGKAPKLLIYAASSLQSGVPSRFSGSGSGTDFTLTISSLQPEDFATYYCQQGVSYPRTFGGGTKVEIK
CD33-binding VH: EVQLLESGGGLVQPGGSLRLSCAASGFTFSKYTMSWVRQAPGKGLEWVSAIVGSGESTYFADSVKGRFTISRDNSKNTLYLQMNSLRAEDTAVYYCAREGGPYYDSSGYFVYYGMDVWGQGTTVTVSS
CD33-binding VL: DIQMTQSPSTLSASVGDRVTITCRASQSISSWLAWYQQKPGKAPKLLIYKASSLESGVPSRFSGSGSGTEFTLTISSLQPDDFATYYCQQYDDLPTFGGGTKVEIK
Regarding B5, the binding result in [1] was “binds”.

B6: A49.G59 (bispecific antibody)
NKG2D-binding VH: EVQLVESGGGLVKPGGSLRLSCAASGFTFSSYSMNWVRQAPGKGLEWVSSISSSSSYIYYADSVKGRFTISRDNAKNSLYLQMNSLRAEDTAVYYCARGAPMGAAAGWFDPWGQGTLVTVSS
NKG2D-binding VL: DIQMTQSPSSVSASVGDRVTITCRASQGISSWLAWYQQKPGKAPKLLIYAASSLQSGVPSRFSGSGSGTDFTLTISSLQPEDFATYYCQQGVSFPRTFGGGTKVEIK
CD33-binding VH: EVQLVESGGGLVQPGGSLRLSCAASGFTFSSYGMSWVRQAPGKGLEWVANIKQDGSEKYYVDSVKGRFTISRDNAKNSLYLQMNSLRAEDTAVYYCAREGGPYYDSSGYFVYYGMDVWGQGTTVTVSS
CD33-binding VL: DIQMTQSPSTLSASVGDRVTITCRASQSISSWLAWYQQKPGKAPKLLIYDASSLESGVPSRFSGSGSGTEFTLTISSLQPDDFATYYCQQYESFPTFGGGTKVEIK
With B6, in [1], the binding result is “binds”.

B7: A44.G59 (bispecific antibody)
NKG2D-binding VH: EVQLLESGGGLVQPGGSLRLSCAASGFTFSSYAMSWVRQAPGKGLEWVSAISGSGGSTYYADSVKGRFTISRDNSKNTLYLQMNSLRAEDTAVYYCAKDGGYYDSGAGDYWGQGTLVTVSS
NKG2D-binding VL: DIQMTQSPSSVSASVGDRVTITCRASQGIDSWLAWYQQKPGKAPKLLIYAASSLQSGVPSRFSGSGSGTDFTLTISSLQPEDFATYYCQQGVSYPRTFGGGTKVEIK
CD33-binding VH: EVQLVESGGGLVQPGGSLRLSCAASGFTFSSYGMSWVRQAPGKGLEWVANIKQDGSEKYYVDSVKGRFTISRDNAKNSLYLQMNSLRAEDTAVYYCAREGGPYYDSSGYFVYYGMDVWGQGTTVTVSS
CD33-binding VL: DIQMTQSPSTLSASVGDRVTITCRASQSISSWLAWYQQKPGKAPKLLIYDASSLESGVPSRFSGSGSGTEFTLTISSLQPDDFATYYCQQYESFPTFGGGTKVEIK
With B7, the binding result in assay [1] is reported as “binds”.

B8: A44.I07 (bispecific antibody)
NKG2D-binding VH: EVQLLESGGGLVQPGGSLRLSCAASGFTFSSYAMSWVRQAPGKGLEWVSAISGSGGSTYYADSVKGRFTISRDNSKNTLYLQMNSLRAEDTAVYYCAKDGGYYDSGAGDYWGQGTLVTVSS
NKG2D-binding VL: DIQMTQSPSSVSASVGDRVTITCRASQGIDSWLAWYQQKPGKAPKLLIYAASSLQSGVPSRFSGSGSGTDFTLTISSLQPEDFATYYCQQGVSYPRTFGGGTKVEIK
CD33-binding VH: EVQLVESGGGLVQPGGSLRLSCAASGFTFGSYWMSWVRQAPGKGLEWVATIKQDGSEKSYVDSVKGRFTISRDNAKNSLYLQMNSLRAEDTAVYYCARPLNAGELDVWGQGTMVTVSS
CD33-binding VL: DIQMTQSPSTLSASVGDRVTITCRASQSISSWLAWYQQKPGKAPKLLIYEASSLESGVPSRFSGSGSGTEFTLTISSLQPDDFATYYCQQSQSYPPITFGGGTKVEIK
On to B8, for which, in assay [1], the binding result was “binds”.

B9: A49.H76 (bispecific antibody)
NKG2D-binding VH: EVQLVESGGGLVKPGGSLRLSCAASGFTFSSYSMNWVRQAPGKGLEWVSSISSSSSYIYYADSVKGRFTISRDNAKNSLYLQMNSLRAEDTAVYYCARGAPMGAAAGWFDPWGQGTLVTVSS
NKG2D-binding VL: DIQMTQSPSSVSASVGDRVTITCRASQGISSWLAWYQQKPGKAPKLLIYAASSLQSGVPSRFSGSGSGTDFTLTISSLQPEDFATYYCQQGVSFPRTFGGGTKVEIK
CD33-binding VH: EVQLLESGGGLVQPGGSLRLSCAASGFTFSKYTMSWVRQAPGKGLEWVSAIVGSGESTYFADSVKGRFTISRDNSKNTLYLQMNSLRAEDTAVYYCAREGGPYYDSSGYFVYYGMDVWGQGTTVTVSS
CD33-binding VL: DIQMTQSPSTLSASVGDRVTITCRASQSISSWLAWYQQKPGKAPKLLIYKASSLESGVPSRFSGSGSGTEFTLTISSLQPDDFATYYCQQYDDLPTFGGGTKVEIK
B9: the binding result in [1] is recorded as “binds”.

B10: F47.I35 (bispecific antibody)
NKG2D-binding VH: QVQLQQWGAGLLKPSETLSLTCAVYGGSFSGYYWSWIRQPPGKGLEWIGEIDHSGSTNYNPSLKSRVTISVDTSKNQFSLKLSSVTAADTAVYYCARARGPWSFDPWGQGTLVTVSS
NKG2D-binding VL: DIQMTQSPSTLSASVGDRVTITCRASQSISSWLAWYQQKPGKAPKLLIYKASSLESGVPSRFSGSGSGTEFTLTISSLQPDDFATYYCQQYDTFITFGGGTKVEIK
CD33-binding VH: QLQLQESGPGLVKPSETLSLTCTVSGGSISSTDYYWGWIRQPPGKGLEWIGSIGYSGTYYNPSLKSRVTISVDTSKNQFSLKLSSVTAADTAVYYCARETAHDVHGMDVWGQGTTVTVSS
CD33-binding VL: EIVLTQSPATLSLSPGERATLSCRASHSVYSYLAWYQQKPGQAPRLLIYDASNRATGIPARFSGSGSGTDFTLTISSLEPEDFAVYYCQQYDNLPTFGGGTKVEIK
As to B10, the binding result in assay [1] is “binds”.

B11: F47.I07 (bispecific antibody)
NKG2D-binding VH: QVQLQQWGAGLLKPSETLSLTCAVYGGSFSGYYWSWIRQPPGKGLEWIGEIDHSGSTNYNPSLKSRVTISVDTSKNQFSLKLSSVTAADTAVYYCARARGPWSFDPWGQGTLVTVSS
NKG2D-binding VL: DIQMTQSPSTLSASVGDRVTITCRASQSISSWLAWYQQKPGKAPKLLIYKASSLESGVPSRFSGSGSGTEFTLTISSLQPDDFATYYCQQYDTFITFGGGTKVEIK
CD33-binding VH: EVQLVESGGGLVQPGGSLRLSCAASGFTFGSYWMSWVRQAPGKGLEWVATIKQDGSEKSYVDSVKGRFTISRDNAKNSLYLQMNSLRAEDTAVYYCARPLNAGELDVWGQGTMVTVSS
CD33-binding VL: DIQMTQSPSTLSASVGDRVTITCRASQSISSWLAWYQQKPGKAPKLLIYEASSLESGVPSRFSGSGSGTEFTLTISSLQPDDFATYYCQQSQSYPPITFGGGTKVEIK
Take B11: the binding result in assay [1] is “binds”.
